Experimental data reported in paper PMC3142617 (Cell host & microbe, 2011).

Experiments:
AUC = biological target: the molecule itself; assay: AUC
SEC-MALS = biological target: the molecule itself; assay: SEC-MALS

B1: L6TIR (L6 TIR domain, residues 29-229) (domain or fragment, flax (Linum usitatissimum))
chain: SNAKDSIVNDDDDSTSEVDAISDSTNPSGSFPSVEYEVFLSFRGPDTREQFTDFLYQSLRRYKIHTFRDDDELLKGKEIGPNLLRAIDQSKIYVPIISSGYADSKWCLMELAEIVRRQEEDPRRIILPIFYMVDPSDVRHQTGCYKKAFRKHANKFDGQTIQNWKDALKKVGDLKGWHIGKNDKQGAIADKVSADIWSHISKEN
AUC
  Kd: 20.3 µM
  stoichiometry N: 2
SEC-MALS
  stoichiometry N: ~2
